This is an account of results in article PMC3762189.

pKd: −log10 of the molar value.

Assay [1] concerns the target G-actin (rabbit muscle actin monomers) (rabbit) (UniProt P68135). Nature of the assay: fluorescence polarisation; competition: anisotropy of 50 nM Rhodamine-VCA with 150 nM G-actin and increasing VCA or VCA mutants; 10 mM Hepes pH 7.0, 50 mM KCl, 1 mM MgCl2, 1 mM EGTA, 1 mM DTT, 0.2 mM ATP, 350 nM Latrunculin B; KD is the mean of at least three fits. A general note: In fluorescence polarisation assays a small probe gives low polarisation when free and higher when bound to something large.

For assay [2], the target named is branch junction (bovine Arp2/3 complex with mother and daughter actin filaments) (bovine | rabbit) (UniProt P61157).
The target is the same in assay [3]. Nature of the assay: single-molecule TIRF microscopy; during active branching: 1 µM 33% Oregon-Green actin, 10 nM Arp2/3 complex, 350 nM VCA and 10 nM Alexa568-NtA(1-48).
Assay [4] concerns the target actin filaments (33% Oregon-Green actin), filament sides (rabbit) (UniProt P68135). The assay is described as follows: single-molecule TIRF microscopy; during active branching: 1 µM 33% Oregon-Green actin, 5 nM Arp2/3 complex, 50 nM VCA and 2 nM Alexa568-cortactin; average lifetimes for each binding class.
Assay [5] has as its target branch junction (bovine Arp2/3 complex with mother and daughter actin filaments) (bovine | rabbit) (UniProt P61157). The description is as above.
Assay [6] concerns the target actin filaments (33% Oregon-Green actin), filament sides (rabbit) (UniProt P68135). The assay is described as follows: single-molecule TIRF microscopy; 2 nM Alexa568-cortactin (1–336) on polymerizing filaments of 1 µM 33% Oregon-Green actin, no Arp2/3 complex; filaments tethered by biotinylated myosin; lifetimes fit with a single exponential.
Assay [7] has the same target. Nature of the assay: single-molecule TIRF microscopy; preformed branched networks (1 µM 33% Oregon-Green actin, 5 nM Arp2/3 complex, 30 nM VCA, ~6 min), then 1.5 nM Alexa568-cortactin and 0.1 µM actin monomers; koff from lifetimes, KD from the average fraction bound, kon calculated from KD and koff.
The target in assay [8] is branch junction (bovine Arp2/3 complex with mother and daughter actin filaments) (bovine | rabbit) (UniProt P61157). The assay is described as above.

Chain of cortactin NtA (residues 1–84) (Q60598 1-84): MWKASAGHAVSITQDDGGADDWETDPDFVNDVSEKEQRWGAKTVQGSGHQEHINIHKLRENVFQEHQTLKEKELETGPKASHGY

As usually defined, the pKd is the Kd on a negative log10 scale, so that one unit is a factor of ten. On to “N-WASP-VCA(E455R) (from UniProt Q95107 1-505) (domain or fragment)”, for which, in assay [1], the pKd is 6.20.

With “cortactin NtA (residues 1–84) (from UniProt Q60598 1-84) (domain or fragment)”, in assay [2], the concentration of NtA (1–84) required for half-maximal synergy with GST-VCA (maximum rate of pyrene-actin polymerization; 2 µM 15% pyrene-actin, 20 nM Arp2/3 complex, 250 nM GST-VCA) came out at 11 µM.

Substance “Alexa568-NtA(1-48) (from UniProt Q60598 1-48) (domain or fragment)” yielded a time bound after daughter filament nucleation (one event shown) in assay [3] of 4.5 s.

Broadly, the koff is a measure of how fast the partners let go of each other. As a reminder, the kon is the second-order rate constant of association. With “Alexa568-cortactin (residues 1–336) (from UniProt Q60598 1-336) (domain or fragment)”, the lifetime on filament sides during active branching in assay [4] worked out at 8 s. In assay [5], this substance displayed an average lifetime at the junction after nucleation of 62 s, an average lifetime before nucleation (nascent branch junction) of 6.5 s and an average lifetime on existing branch junctions during active branching of 29.5 s. In assay [6], this substance gave an off-rate constant (koff) of 0.05 s⁻¹. Besides, in assay [7], the pKd is 5.28, the koff is 0.063 s⁻¹ and the kon was 12100 M⁻¹ s⁻¹. Besides, in assay [8], the pKd was 7.77, the average lifetime on branch junctions (preformed filament reactions) is 29.1 s, the koff is 0.034 s⁻¹ and the kon was 2e+06 M⁻¹ s⁻¹.

“N-WASP-VCA(R442A) (from UniProt Q95107 1-505) (domain or fragment)”: the pKd in assay [1] was 4.95.
